Experimental data reported in article PMC7755716.

Test system: DtxR (Corynebacterium glutamicum (derived from KCTC No. 1445))
Assay: EMSA
Conditions: 150 uM Mn2+, 5 mM Mg2+, 50 mM Tris-HCl pH 7.5, 5 mM MgCl2, 40 mM KCl, 5% glycerol, 1 mM DTT, 150 uM MnCl2, 30 min at room temperature, 200 ng DNA, 0-350 ng DtxR dimer in 10 ul, 15% …

Substance	binding signal (% of wild-type affinity)	binding signal (% of wild-type affinity) (reference)
NCgl1959 regulatory region, C-14G (399 bp)	40	
NCgl1959 regulatory region, wild type (399 bp)		100
